Data published in patent publication US20190134153A1, “IMMUNOMODULATORY EFFECT OF INHALED KINASE INHIBITOR PEPTIDES IN LUNG” (MOERAE MATRIX, INC., priority 2017, published 2019).

How the values were obtained:
Experiment in all cases: Kinase Profiling Assay
Settings in all cases: 100 μM
[1] = biological target: CDK5/p35(h) (Homo sapiens, UniProt Q00535); assay type: biochemical
[2] = biological target: T1, EphB2(h) (Homo sapiens, UniProt P29323); assay type: biochemical
T1 sequence (P29323 19-1055): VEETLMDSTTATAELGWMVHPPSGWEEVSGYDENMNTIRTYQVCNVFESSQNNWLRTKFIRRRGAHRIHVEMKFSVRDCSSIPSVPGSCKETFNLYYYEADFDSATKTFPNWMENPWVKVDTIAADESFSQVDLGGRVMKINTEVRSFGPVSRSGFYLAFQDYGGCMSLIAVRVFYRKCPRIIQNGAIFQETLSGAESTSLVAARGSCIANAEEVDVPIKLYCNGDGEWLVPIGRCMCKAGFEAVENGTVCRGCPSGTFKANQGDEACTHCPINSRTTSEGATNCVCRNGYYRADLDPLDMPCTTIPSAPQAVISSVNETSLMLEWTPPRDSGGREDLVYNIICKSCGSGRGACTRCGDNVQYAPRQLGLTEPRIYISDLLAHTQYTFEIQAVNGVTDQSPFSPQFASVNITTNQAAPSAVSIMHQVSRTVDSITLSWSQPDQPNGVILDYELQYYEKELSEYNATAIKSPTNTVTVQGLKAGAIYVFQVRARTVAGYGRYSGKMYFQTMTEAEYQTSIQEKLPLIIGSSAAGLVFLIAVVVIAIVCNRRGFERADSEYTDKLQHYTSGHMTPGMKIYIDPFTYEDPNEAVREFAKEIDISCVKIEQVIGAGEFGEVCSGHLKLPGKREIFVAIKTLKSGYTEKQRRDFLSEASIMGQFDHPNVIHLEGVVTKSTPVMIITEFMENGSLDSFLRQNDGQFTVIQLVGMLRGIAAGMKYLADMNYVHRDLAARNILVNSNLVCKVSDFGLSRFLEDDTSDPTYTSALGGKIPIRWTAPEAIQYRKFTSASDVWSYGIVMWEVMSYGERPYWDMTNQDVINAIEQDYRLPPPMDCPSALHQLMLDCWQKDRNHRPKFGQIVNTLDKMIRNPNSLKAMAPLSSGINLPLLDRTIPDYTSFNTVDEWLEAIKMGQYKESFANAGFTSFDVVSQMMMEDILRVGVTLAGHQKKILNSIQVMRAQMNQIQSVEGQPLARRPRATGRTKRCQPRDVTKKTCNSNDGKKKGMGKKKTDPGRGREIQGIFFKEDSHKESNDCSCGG

[3] = biological target: KDR(h) (Homo sapiens, UniProt P35968); assay type: biochemical
[4] = biological target: Met(Y1248C)(h) (Homo sapiens, UniProt P08581, Y1230C); assay type: biochemical
[5] = system: MLCK(h); assay type: biochemical, human
[6] = biological target: MLK1(h) (Homo sapiens, UniProt P80192); assay type: biochemical
[7] = biological target: Pim-3(h) (Homo sapiens, UniProt Q86V86); assay type: biochemical
[8] = biological target: PKBβ(h) (Homo sapiens, UniProt P31751); assay type: biochemical
Chain of PKBβ(h) (P31751 whole entry): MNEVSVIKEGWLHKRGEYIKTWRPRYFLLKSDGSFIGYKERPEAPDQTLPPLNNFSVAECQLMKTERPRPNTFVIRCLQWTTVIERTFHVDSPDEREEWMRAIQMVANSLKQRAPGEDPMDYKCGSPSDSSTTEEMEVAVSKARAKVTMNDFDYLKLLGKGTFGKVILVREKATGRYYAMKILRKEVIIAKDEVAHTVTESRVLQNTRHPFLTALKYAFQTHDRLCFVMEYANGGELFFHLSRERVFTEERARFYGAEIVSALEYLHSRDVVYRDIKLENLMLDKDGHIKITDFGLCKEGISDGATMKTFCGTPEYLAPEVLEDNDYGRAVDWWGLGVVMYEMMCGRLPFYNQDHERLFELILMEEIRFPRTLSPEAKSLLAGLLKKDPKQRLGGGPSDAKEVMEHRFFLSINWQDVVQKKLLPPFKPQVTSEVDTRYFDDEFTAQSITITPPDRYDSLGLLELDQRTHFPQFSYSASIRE

[9] = biological target: PKCβI(h) (Homo sapiens, UniProt P05771); assay type: biochemical
Chain of PKCβI(h) (P05771 whole entry): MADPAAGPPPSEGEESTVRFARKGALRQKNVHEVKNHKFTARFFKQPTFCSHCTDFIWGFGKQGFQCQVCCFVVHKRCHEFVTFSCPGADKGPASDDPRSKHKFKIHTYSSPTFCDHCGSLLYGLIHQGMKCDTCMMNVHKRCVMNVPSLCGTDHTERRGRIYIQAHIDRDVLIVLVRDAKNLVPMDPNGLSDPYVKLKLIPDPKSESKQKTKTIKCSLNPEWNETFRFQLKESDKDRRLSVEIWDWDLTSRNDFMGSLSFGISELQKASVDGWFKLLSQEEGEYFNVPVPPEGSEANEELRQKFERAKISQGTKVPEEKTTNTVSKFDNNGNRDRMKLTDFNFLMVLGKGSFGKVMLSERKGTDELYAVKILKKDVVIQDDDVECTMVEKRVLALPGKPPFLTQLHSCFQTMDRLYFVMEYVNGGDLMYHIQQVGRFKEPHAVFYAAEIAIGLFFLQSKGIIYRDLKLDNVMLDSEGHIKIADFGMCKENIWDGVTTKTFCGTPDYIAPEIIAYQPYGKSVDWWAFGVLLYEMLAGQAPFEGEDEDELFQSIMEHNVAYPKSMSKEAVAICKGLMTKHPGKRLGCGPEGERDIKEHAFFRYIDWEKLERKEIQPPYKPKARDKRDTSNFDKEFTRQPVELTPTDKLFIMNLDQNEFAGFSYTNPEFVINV

[10] = biological target: PRK2(h) (Homo sapiens, UniProt Q16513); assay type: biochemical
Chain of PRK2(h) (Q16513 whole entry): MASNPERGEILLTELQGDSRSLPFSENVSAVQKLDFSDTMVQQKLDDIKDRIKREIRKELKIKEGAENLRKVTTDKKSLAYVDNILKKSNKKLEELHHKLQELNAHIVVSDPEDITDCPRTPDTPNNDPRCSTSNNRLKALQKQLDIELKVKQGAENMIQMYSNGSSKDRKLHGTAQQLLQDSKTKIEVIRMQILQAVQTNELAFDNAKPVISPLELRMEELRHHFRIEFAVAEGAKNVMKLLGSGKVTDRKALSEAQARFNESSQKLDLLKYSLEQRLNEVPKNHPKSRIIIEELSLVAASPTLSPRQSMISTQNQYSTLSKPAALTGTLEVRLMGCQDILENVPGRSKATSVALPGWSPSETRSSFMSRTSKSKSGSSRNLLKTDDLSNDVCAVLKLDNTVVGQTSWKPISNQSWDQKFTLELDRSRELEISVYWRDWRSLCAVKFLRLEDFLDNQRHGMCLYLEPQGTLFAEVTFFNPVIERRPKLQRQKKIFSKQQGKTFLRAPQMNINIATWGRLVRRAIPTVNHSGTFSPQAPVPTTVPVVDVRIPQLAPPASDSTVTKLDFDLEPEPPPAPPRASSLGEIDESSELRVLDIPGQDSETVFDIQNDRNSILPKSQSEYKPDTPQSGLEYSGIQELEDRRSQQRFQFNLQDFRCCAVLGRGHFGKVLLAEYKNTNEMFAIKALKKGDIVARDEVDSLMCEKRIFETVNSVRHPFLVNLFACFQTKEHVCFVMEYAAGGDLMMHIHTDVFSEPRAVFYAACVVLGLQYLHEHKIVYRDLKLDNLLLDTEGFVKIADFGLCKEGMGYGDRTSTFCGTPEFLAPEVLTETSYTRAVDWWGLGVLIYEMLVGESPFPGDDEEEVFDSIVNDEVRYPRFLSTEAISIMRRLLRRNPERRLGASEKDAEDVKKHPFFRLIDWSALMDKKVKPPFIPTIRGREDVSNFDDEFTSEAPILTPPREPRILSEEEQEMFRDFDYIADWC

[11] = biological target: DAPK1(h) (Homo sapiens, UniProt P53355); assay type: biochemical
Chain of DAPK1(h) (P53355 whole entry): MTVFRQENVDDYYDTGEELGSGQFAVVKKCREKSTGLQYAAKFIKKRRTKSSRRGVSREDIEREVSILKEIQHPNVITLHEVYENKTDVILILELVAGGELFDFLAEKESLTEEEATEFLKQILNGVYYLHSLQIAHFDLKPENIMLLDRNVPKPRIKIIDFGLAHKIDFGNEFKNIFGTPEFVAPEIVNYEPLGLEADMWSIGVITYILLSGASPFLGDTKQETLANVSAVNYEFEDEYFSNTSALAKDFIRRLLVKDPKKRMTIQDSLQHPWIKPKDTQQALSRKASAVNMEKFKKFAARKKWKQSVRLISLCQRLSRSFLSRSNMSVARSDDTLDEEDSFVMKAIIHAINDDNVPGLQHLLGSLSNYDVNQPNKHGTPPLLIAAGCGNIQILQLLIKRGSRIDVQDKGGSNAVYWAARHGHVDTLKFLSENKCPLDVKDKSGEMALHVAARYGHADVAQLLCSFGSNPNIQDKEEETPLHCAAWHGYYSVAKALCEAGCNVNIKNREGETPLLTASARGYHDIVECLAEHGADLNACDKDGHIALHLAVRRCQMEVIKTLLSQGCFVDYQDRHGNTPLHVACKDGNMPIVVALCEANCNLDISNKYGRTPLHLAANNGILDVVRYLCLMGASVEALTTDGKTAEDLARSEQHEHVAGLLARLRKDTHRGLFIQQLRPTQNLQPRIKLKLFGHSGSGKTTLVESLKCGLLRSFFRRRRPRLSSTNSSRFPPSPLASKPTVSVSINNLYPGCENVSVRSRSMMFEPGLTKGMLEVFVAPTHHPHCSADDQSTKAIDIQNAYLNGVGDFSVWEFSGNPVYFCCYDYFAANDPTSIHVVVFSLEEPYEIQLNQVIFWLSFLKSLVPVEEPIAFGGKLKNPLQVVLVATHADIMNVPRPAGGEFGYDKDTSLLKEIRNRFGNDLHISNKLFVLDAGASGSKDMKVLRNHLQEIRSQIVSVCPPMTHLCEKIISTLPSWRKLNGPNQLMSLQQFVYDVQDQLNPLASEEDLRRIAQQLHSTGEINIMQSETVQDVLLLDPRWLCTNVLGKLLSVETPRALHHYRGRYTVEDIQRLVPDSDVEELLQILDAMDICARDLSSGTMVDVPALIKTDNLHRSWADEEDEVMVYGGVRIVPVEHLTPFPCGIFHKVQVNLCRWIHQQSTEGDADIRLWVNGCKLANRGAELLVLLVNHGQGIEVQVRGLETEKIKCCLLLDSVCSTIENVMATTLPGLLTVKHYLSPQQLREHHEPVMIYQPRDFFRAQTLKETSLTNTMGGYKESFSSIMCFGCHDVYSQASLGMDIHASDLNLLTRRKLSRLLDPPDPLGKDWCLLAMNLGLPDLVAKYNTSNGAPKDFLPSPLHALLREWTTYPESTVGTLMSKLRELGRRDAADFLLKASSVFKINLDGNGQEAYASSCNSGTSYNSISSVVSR

[12] = biological target: Mnk2(h) (Homo sapiens, UniProt Q9HBH9); assay type: biochemical
Chain of Mnk2(h) (Q9HBH9 whole entry): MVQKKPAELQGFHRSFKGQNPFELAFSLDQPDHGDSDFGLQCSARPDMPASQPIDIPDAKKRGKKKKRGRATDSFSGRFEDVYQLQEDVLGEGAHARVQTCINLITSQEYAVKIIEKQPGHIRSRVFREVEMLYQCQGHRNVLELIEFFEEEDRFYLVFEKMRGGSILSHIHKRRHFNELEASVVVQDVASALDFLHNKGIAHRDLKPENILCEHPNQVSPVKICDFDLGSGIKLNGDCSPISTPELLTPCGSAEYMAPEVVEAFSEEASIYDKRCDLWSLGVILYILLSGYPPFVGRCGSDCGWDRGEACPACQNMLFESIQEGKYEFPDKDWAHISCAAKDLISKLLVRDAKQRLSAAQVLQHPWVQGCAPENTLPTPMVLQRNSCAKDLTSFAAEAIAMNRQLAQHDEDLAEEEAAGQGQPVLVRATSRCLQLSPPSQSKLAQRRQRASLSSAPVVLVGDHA

[13] = biological target: SIK(h) (Homo sapiens, UniProt P57059); assay type: biochemical
[14] = biological target: T2, TAO3(h) (Homo sapiens, UniProt Q9H2K8); assay type: biochemical
T2 sequence (Q9H2K8 1-898): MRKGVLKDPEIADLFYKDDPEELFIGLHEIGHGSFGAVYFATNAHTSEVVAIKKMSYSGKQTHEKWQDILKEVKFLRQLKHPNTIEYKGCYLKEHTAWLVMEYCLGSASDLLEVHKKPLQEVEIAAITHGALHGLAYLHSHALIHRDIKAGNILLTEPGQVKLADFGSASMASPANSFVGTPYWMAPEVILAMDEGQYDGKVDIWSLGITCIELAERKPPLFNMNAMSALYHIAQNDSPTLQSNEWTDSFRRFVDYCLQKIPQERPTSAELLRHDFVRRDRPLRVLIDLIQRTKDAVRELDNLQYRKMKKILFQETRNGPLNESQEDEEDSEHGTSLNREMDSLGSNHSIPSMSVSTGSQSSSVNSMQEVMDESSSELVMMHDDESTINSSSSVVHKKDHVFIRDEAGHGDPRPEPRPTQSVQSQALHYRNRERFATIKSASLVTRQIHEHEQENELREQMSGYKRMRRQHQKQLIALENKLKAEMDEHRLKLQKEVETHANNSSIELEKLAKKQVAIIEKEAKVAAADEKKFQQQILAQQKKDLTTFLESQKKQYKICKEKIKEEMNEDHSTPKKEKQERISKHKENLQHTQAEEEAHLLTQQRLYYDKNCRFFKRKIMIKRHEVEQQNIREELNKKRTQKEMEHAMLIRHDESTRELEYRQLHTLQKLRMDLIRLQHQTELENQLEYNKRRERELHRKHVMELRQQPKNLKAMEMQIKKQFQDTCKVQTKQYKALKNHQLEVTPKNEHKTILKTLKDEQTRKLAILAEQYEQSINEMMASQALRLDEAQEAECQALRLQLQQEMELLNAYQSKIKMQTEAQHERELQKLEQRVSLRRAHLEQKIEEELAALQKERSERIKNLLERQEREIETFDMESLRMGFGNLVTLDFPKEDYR

Chain of CDK5/p35(h) (Q00535 whole entry): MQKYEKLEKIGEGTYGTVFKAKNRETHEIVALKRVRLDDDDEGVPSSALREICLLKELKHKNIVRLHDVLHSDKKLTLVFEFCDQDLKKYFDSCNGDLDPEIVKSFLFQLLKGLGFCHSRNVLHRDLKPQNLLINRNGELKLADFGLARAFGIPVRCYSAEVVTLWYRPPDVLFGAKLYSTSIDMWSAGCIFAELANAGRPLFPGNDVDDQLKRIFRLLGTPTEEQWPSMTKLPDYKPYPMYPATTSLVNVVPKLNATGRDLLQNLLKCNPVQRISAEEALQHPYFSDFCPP
Chain of CDK5/p35(h) (Q15078 whole entry partner): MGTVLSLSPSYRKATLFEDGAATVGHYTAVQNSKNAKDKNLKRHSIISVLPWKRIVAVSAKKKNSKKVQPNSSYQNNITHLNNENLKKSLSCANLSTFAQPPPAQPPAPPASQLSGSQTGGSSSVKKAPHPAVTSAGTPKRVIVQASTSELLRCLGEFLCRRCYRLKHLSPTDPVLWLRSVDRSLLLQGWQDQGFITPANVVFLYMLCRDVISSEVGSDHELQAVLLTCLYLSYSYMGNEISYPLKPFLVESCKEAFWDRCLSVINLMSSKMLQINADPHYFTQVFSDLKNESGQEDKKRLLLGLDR

For YARAAARQARAKALNRQLGVA [MMI-0200], the “% activity” value [1] was 92%, the “% activity” value [2] was 128% and the “% activity” value [3] was 110%. The “% activity” value [4] was 141%, the “% activity” value [5] was 103% and the “% activity” value [6] was 84%. The “% activity” value [7] was 94%, the “% activity” value [8] was 250% and the “% activity” value [9] was 98%. For the same sequence, the “% activity” value [10] was 74%.
In the case of KAFAKLAARLYRKALARQLGVAA [MMI-0400], the “% activity” value [1] is reported as 76%, the “% activity” value [11] is reported as 36% and the “% activity” value [2] is reported as 22%. The “% activity” value [3] was 94%, the “% activity” value [4] was 36% and the “% activity” value [5] was 1%. The “% activity” value [6] was 33%, the “% activity” value [12] was 86% and the “% activity” value [7] was 80%. The “% activity” value [8] was 98%, the “% activity” value [9] was 78% and the “% activity” value [10] was 27%. The “% activity” value [13] was 68% and the “% activity” value [14] was 67%.
In the case of HRRIKAWLKKIKALARQLGVAA [MMI-0500], the “% activity” value [1] is reported as 59%, the “% activity” value [11] is reported as 0% and the “% activity” value [2] is reported as 70%. For the same sequence, the “% activity” value [3] was 15%, the “% activity” value [4] was 73% and the “% activity” value [5] was 0%. The “% activity” value [6] was 43%, the “% activity” value [12] was 6% and the “% activity” value [7] was 37%. The “% activity” value [8] was 21%, the “% activity” value [9] was 1% and the “% activity” value [10] was 7%. For the same sequence, the “% activity” value [13] was 40% and the “% activity” value [14] was 12%.
In the case of FAKLAARLYRKALARQLGVAA [MMI-0300], the “% activity” value [1] is reported as 79%, the “% activity” value [11] is reported as 46% and the “% activity” value [2] is reported as 18%. For the same sequence, the “% activity” value [3] was 101%, the “% activity” value [4] was 84% and the “% activity” value [5] was 2%. For the same sequence, the “% activity” value [6] was 40%, the “% activity” value [12] was 89% and the “% activity” value [7] was 80%. The “% activity” value [8] was 84%, the “% activity” value [9] was 78% and the “% activity” value [10] was 33%. The “% activity” value [13] was 66% and the “% activity” value [14] was 77%.
